Legend:
[1] = molecular target: T1, PbrNSC (Pyrus bretschneideri? (pear …, UniProt A0A5J6X514 1-400)); assay: EMSA
T1 sequence: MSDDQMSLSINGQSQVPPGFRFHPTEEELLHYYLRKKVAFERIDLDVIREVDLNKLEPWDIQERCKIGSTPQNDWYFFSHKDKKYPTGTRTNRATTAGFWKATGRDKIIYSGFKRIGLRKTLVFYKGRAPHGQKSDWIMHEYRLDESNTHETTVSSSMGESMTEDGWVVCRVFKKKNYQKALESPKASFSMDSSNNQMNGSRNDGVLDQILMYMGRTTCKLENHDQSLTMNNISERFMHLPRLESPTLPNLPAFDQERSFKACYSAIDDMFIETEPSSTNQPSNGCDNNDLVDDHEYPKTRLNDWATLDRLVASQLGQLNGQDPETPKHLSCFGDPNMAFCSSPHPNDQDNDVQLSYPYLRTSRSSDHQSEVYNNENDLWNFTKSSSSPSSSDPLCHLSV

[2] = molecular target: T2, PbrARF13 (Pyrus bretschneideri? (pear …, UniProt UPI00202FA75D 49-757)); assay: EMSA
T2 sequence: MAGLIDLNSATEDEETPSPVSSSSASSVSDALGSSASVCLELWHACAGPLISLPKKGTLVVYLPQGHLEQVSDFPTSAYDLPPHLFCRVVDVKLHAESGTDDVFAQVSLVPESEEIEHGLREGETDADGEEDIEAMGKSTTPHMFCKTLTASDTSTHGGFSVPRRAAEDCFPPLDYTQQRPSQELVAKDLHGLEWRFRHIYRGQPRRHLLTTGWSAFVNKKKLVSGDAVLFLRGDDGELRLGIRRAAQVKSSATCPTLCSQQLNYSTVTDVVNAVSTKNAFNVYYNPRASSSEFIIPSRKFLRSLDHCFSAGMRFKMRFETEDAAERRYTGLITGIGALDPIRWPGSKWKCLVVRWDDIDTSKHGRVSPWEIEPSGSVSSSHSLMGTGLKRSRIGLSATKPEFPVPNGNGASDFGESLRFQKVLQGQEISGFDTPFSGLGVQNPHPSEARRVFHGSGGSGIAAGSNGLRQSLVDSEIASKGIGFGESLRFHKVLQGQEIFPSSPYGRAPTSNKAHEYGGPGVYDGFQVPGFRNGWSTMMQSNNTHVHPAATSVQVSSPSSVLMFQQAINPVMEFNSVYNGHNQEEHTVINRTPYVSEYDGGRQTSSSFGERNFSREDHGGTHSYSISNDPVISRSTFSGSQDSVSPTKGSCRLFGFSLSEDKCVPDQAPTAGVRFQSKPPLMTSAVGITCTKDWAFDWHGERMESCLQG

[3] = molecular target: T2, PbrARF13; assay: competition

B1: SNBE probe (dsDNA)
DNA 1: ATACTTGAAACCTAAGTAA
DNA 2: TTACTTAGGTTTCAAGTAT
binding result [1]: binds

B2: AuxRE-2 mutant probe (dsDNA)
DNA 1: ATCATCTCGAGAGATCTCTTGC
DNA 2: GCAAGAGATCTCTCGAGATGAT
binding result [2]: no binding

B3: AuxRE-2 probe (dsDNA)
DNA 1: ATCATCTCTGTCTCTCTCTTGC
DNA 2: GCAAGAGAGAGACAGAGATGAT
binding result [2]: binds

B4: AuxRE-2 unlabelled competitor (dsDNA)
DNA 1: ATCATCTCTGTCTCTCTCTTGC
DNA 2: GCAAGAGAGAGACAGAGATGAT
binding result [3]: binds

Reference: paper PMC10281602
